The supplement of paper PMC11316812
± gives the standard deviation of the averaged measurements.

How the values were obtained:
MCF7 = experiment: percentage of EdU-negative (G0-arrested) nuclei per well, 72 h; higher = more G0 arrest; conditions: reference: sequence is the full UniProt precursor, the tested protein was the secreted form or ectodomain
hTERT-HMEC = experiment: as above; conditions: reference: sequence is the full UniProt precursor, the tested protein was the secreted form or ectodomain
[1] = protein concentration 0.0225 µM
[2] = protein concentration 0.0125 µM
[3] = protein concentration 0.0105714 µM
[4] = protein concentration 0.105714 µM
[5] = protein concentration 0.0111425 µM
[6] = protein concentration 0.111425 µM
[7] = protein concentration 0.03125 µM
[8] = protein concentration 0.3125 µM
[9] = protein concentration 0.00875 µM
[10] = protein concentration 0.0875 µM
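Further: secreted proteins added to cultured cells, EdU pulse at the end, nuclei found by Hoechst imaging, EdU status from nuclear versus surrounding ring intensity ratio, PBS as neutral control.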

Row | Sequence | percentage of EdU-negative (MCF7; [1]) [%] | percentage of EdU-negative (MCF7; protein concentration 0.225 µM) [%] | percentage of EdU-negative (hTERT-HMEC; [1]) [%] | percentage of EdU-negative (hTERT-HMEC; protein concentration 0.225 µM) [%] | also measured
1 | MVLAQGLLSMALLALCWERSLAGAEETIPLQTLRCYNDYTSHITCRWADTQDAQRLVNVTLIRRVNEDLLEPVSCDLSDDMPWSACPHPRCVPRRCVIPCQSFVVTDVDYFSFQPDRPLGTRLTVTLTQHVQPPEPRDLQISTDQDHFLLTWSVALGSPQSHWLSPGDLEFEVVYKRLQDSWEDAAILLSNTSQATLGPEHLMPSSTYVARVRTRLAPGSRLSGRPSKWSPEVCWDSQPGDEAQPQNLECFFDGAAVLSCSWEVRKEVASSVSFGLFYKPSPDAGEEECSPVLREGLGSLHTRHHCQIPVPDPATHGQYIVSVQPRRAEKHIKSSVNIQMAPPSLNVTKDGDSYSLRWETMKMRYEHIDHTFEIQYRKDTATWKDSKTETLQNAHSMALPALEPSTRYWARVRVRTSRTGYNGIWSEWSEARSWDTESVLPMWVLALIVIFLTIAVLLALRFCGIYGYRLRRKWEEKIPNPSKSHLFQNGSAELWPPGSMSAFTSGSPPHQGPWGSRFPELEGVFPVGFGDSEVSPLTIEDPKHVCDPPSGPDTTPAASDLPTEQPPSPQPGPPAASHTPEKQASSFDFNGPYLGPPHSRSLPDILGQPEPPQEGGSQKSPPPGSLEYLCLPAGGQVQLVPLAQAMGPGQAVEVERRPSQGAAGSPSLESGGGPAPPALGPRVGGQDQKDSPVAIPMSSGDTEDPGVASGYVSSADLVFTPNSGASSVSLVPSLGLPSDQTPSLCPGLASGPPGAPGPVKSGFEGYVELPPIEGRSPRSPRNNPVPPEAKSPVLNPGERPADVSPTSPQPEGLLVLQQVGDYCFLPGLGPGPLSLRSKPSSPGPGPEIKNLDQAFQVKKPPGQAVPQVPVIQLFKALKQQDYLSLPPWEVNKPGEVC | 23.9 ± 0.89 | 26.4 ± 2.5 | 4.92 ± 0.4 | 8.11 ± 1.6 | –
2 | MVLCFPLLLLLLVLWGPVCPLHAWPKRLTKAHWFEIQHIQPSPLQCNRAMSGINNYTQHCKHQNTFLHDSFQNVAAVCDLLSIVCKNRRHNCHQSSKPVNMTDCRLTSGKYPQCRYSAAAQYKFFIVACDPPQKSDPPYKLVPVHLDSIL | 25.2 ± 2.5 | 25 ± 4.7 | 4.8 ± 0.73 | 7.49 ± 1.4 | –
3 | MVLCWLLLLVMALPPGTTGVKDCVFCELTDSMQCPGTYMHCGDDEDCFTGHGVAPGTGPVINKGCLRATSCGLEEPVSYRGVTYSLTTNCCTGRLCNRAPSSQTVGATTSLALGLGMLLPPRLL [Q8TDM5] | 27.6 ± 0.57 | 25.47 ± 0.088 | 4.81 ± 0.12 | 5.43 ± 0.73 | –
4 | MVLLLLVAIPLLVHSSRGPAHYEMLGRCRMVCDPHGPRGPGPDGAPASVPPFPPGAKGEVGRRGKAGLRGPPGPPGPRGPPGEPGRPGPPGPPGPGPGGVAPAAGYVPRIAFYAGLRRPHEGYEVLRFDDVVTNVGNAYEAASGKFTCPMPGVYFFAYHVLMRGGDGTSMWADLMKNGQVRASAIAQDADQNYDYASNSVILHLDVGDEVFIKLDGGKVHGGNTNKYSTFSGFIIYPD [Q86Z23] | – | – | – | – | percentage of EdU-negative (MCF7; [2]): 23.6 ± 0.38%; percentage of EdU-negative (MCF7; protein concentration 0.125 µM): 27.2 ± 2.1%; percentage of EdU-negative (hTERT-HMEC; [2]): 4.79 ± 0.17%; percentage of EdU-negative (hTERT-HMEC; protein concentration 0.125 µM): 6.46 ± 0.13%
5 | MVLLRVLILLLSWAAGMGGQYGNPLNKYIRHYEGLSYNVDSLHQKHQRAKRAVSHEDQFLRLDFHAHGRHFNLRMKRDTSLFSDEFKVETSNKVLDYDTSHIYTGHIYGEEGSFSHGSVIDGRFEGFIQTRGGTFYVEPAERYIKDRTLPFHSVIYHEDDINYPHKYGPQGGCADHSVFERMRKYQMTGVEEVTQIPQEEHAANGPELLRKKRTTSAEKNTCQLYIQTDHLFFKYYGTREAVIAQISSHVKAIDTIYQTTDFSGIRNISFMVKRIRINTTADEKDPTNPFRFPNIGVEKFLELNSEQNHDDYCLAYVFTDRDFDDGVLGLAWVGAPSGSSGGICEKSKLYSDGKKKSLNTGIITVQNYGSHVPPKVSHITFAHEVGHNFGSPHDSGTECTPGESKNLGQKENGNYIMYARATSGDKLNNNKFSLCSIRNISQVLEKKRNNCFVESGQPICGNGMVEQGEECDCGYSDQCKDECCFDANQPEGRKCKLKPGKQCSPSQGPCCTAQCAFKSKSEKCRDDSDCAREGICNGFTALCPASDPKPNFTDCNRHTQVCINGQCAGSICEKYGLEECTCASSDGKDDKELCHVCCMKKMDPSTCASTGSVQWSRHFSGRTITLQPGSPCNDFRGYCDVFMRCRLVDADGPLARLKKAIFSPELYENIAEWIVAHWWAVLLMGIALIMLMAGFIKICSVHTPSSNPKLPPPKPLPGTLKRRRPPQPIQQPQRQRPRESYQMGHMRR | – | – | – | – | percentage of EdU-negative (MCF7; [3]): 24.8 ± 1.8%; percentage of EdU-negative (MCF7; [4]): 26.2 ± 1.3%; percentage of EdU-negative (hTERT-HMEC; [3]): 6.02 ± 1.1%; percentage of EdU-negative (hTERT-HMEC; [4]): 6.36 ± 1.3%
6 | MVLLWEPAGAWLALGLALALGPSVAAAAPRQDCTGVECPPLENCIEEALEPGACCATCVQQGCACEGYQYYDCLQGGFVRGRVPAGQSYFVDFGSTECSCPPGGGKISCQFMLCPELPPNCIEAVVVADSCPQCGQVGCVHAGHKYAAGHTVHLPPCRACHCPDAGGELICYQLPGCHGNFSDAEEGDPERHYEDPYSYDQEVAEVEAATALGGEVQAGAVQAGAGGPPAALGGGSQPLSTIQAPPWPAVLPRPTAAAALGPPAPVQAKARRVTEDSEEEEEEEEEREEMAVTEQLAAGGHRGLDGLPTTAPAGPSLPIQEERAEAGARAEAGARPEENLILDAQATSRSTGPEGVTHAPSLGKAALVPTQAVPGSPRDPVKPSPHNILSTSLPDAAWIPPTREVPRKPQVLPHSHVEEDTDPNSVHSIPRSSPEGSTKDLIETCCAAGQQWAIDNDECLEIPESGTEDNVCRTAQRHCCVSYLQEKSCMAGVLGAKEGETCGAEDNDSCGISLYKQCCDCCGLGLRVRAEGQSCESNPNLGYPCNHVMLSCCEGEEPLIVPEVRRPPEPAAAPRRVSEAEMAGREALSLGTEAELPNSLPGDDQDECLLLPGELCQHLCINTVGSYHCACFPGFSLQDDGRTCRPEGHPPQPEAPQEPALKSEFSQVASNTIPLPLPQPNTCKDNGPCKQVCSTVGGSAICSCFPGYAIMADGVSCEDINECVTDLHTCSRGEHCVNTLGSFHCYKALTCEPGYALKDGECEDVDECAMGTHTCQPGFLCQNTKGSFYCQARQRCMDGFLQDPEGNCVDINECTSLSEPCRPGFSCINTVGSYTCQRNPLICARGYHASDDGTKCVDVNECETGVHRCGEGQVCHNLPGSYRCDCKAGFQRDAFGRGCIDVNECWASPGRLCQHTCENTLGSYRCSCASGFLLAADGKRCEDVNECEAQRCSQECANIYGSYQCYCRQGYQLAEDGHTCTDIDECAQGAGILCTFRCLNVPGSYQCACPEQGYTMTANGRSCKDVDECALGTHNCSEAETCHNIQGSFRCLRFECPPNYVQVSKTKCERTTCHDFLECQNSPARITHYQLNFQTGLLVPAHIFRIGPAPAFTGDTIALNIIKGNEEGYFGTRRLNAYTGVVYLQRAVLEPRDFALDVEMKLWRQGSVTTFLAKMHIFFTTFAL | – | – | – | – | percentage of EdU-negative (MCF7; [5]): 23.7 ± 1.3%; percentage of EdU-negative (MCF7; [6]): 25.1 ± 2.6%; percentage of EdU-negative (hTERT-HMEC; [5]): 5.72 ± 0.17%; percentage of EdU-negative (hTERT-HMEC; [6]): 6.99 ± 0.78%
7 | MVLLWLTLLLIALPCLLQTKEDPNPPITNLRMKAKAQQLTWDLNRNVTDIECVKDADYSMPAVNNSYCQFGAISLCEVTNYTVRVANPPFSTWILFPENSGKPWAGAENLTCWIHDVDFLSCSWAVGPGAPADVQYDLYLNVANRRQQYECLHYKTDAQGTRIGCRFDDISRLSSGSQSSHILVRGRSAAFGIPCTDKFVVFSQIEILTPPNMTAKCNKTHSFMHWKMRSHFNRKFRYELQIQKRMQPVITEQVRDRTSFQLLNPGTYTVQIRARERVYEFLSAWSTPQRFECDQEEGANTRAWRTSLLIALGTLLALVCVFVICRRYLVMQRLFPRIPHMKDPIGDSFQNDKLVVWEAGKAGLEECLVTEVQVVQKT | – | – | – | – | percentage of EdU-negative (MCF7; [7]): 26.3 ± 2.9%; percentage of EdU-negative (MCF7; [8]): 30.4 ± 0.99%; percentage of EdU-negative (hTERT-HMEC; [7]): 4.403 ± 0.019%; percentage of EdU-negative (hTERT-HMEC; [8]): 5.4 ± 0.13%
8 | MVLWESPRQCSSWTLCEGFCWLLLLPVMLLIVARPVKLAAFPTSLSDCQTPTGWNCSGYDDRENDLFLCDTNTCKFDGECLRIGDTVTCVCQFKCNNDYVPVCGSNGESYQNECYLRQAACKQQSEILVVSEGSCATDAGSGSGDGVHEGSGETSQKETSTCDICQFGAECDEDAEDVWCVCNIDCSQTNFNPLCASDGKSYDNACQIKEASCQKQEKIEVMSLGRCQDNTTTTTKSEDGHYARTDYAENANKLEESAREHHIPCPEHYNGFCMHGKCEHSINMQEPSCRCDAGYTGQHCEKKDYSVLYVVPGPVRFQYVLIAAVIGTIQIAVICVVVLCITRKCPRSNRIHRQKQNTGHYSSDNTTRASTRLI [Q9UIK5] | – | – | – | – | percentage of EdU-negative (MCF7; [9]): 23.6 ± 4.7%; percentage of EdU-negative (MCF7; [10]): 28.2 ± 2%; percentage of EdU-negative (hTERT-HMEC; [9]): 5.34 ± 0.33%; percentage of EdU-negative (hTERT-HMEC; [10]): 11.1 ± 2.2%
9 | MVMLLLLLSALAGLFGAAEGQAFHLGKCPNPPVQENFDVNKYLGRWYEIEKIPTTFENGRCIQANYSLMENGKIKVLNQELRADGTVNQIEGEATPVNLTEPAKLEVKFSWFMPSAPYWILATDYENYALVYSCTCIIQLFHVDFAWILARNPNLPPETVDSLKNILTSNNIDVKKMTVTDQVNCPKLS | 24.66 ± 0.099 | 25.9 ± 3 | 4.945 ± 0.022 | 4.745 ± 0.02 | –
10 | MVMRPLWSLLLWEALLPITVTGAQVLSKVGGSVLLVAARPPGFQVREAIWRSLWPSEELLATFFRGSLETLYHSRFLGRAQLHSNLSLELGPLESGDSGNFSVLMVDTRGQPWTQTLQLKVYDAVPRPVVQVFIAVERDAQPSKTCQVFLSCWAPNISEITYSWRRETTMDFGMEPHSLFTDGQVLSISLGPGDRDVAYSCIVSNPVSWDLATVTPWDSCHHEAAPGKASYKDVLLVVVPVSLLLMLVTLFSAWHWCPCSGKKKKDVHADRVGPETENPLVQDLP [Q9P0V8] | 34.5 ± 7.9 | 28.8 ± 0.29 | 7.18 ± 1.4 | 4 ± 0.28 | –
11 | MVNLAAMVWRRLLRKRWVLALVFGLSLVYFLSSTFKQEERAVRDRNLLQVHDHNQPIPWKVQFNLGNSSRPSNQCRNSIQGKHLITDELGYVCERKDLLVNGCCNVNVPSTKQYCCDGCWPNGCCSAYEYCVSCCLQPNKQLLLERFLNRAAVAFQNLFMAVEDHFELCLAKCRTSSQSVQHENTYRDPIAKYCYGESPPELFPA [Q9H741] | 26.4 ± 1.1 | 27 ± 2.9 | 5.34 ± 0.37 | 7.52 ± 0.6 | –
12 | MVPAAGALLWVLLLNLGPRAAGAQGLTQTPTEMQRVSLRFGGPMTRSYRSTARTGLPRKTRIILEDENDAMADADRLAGPAAAELLAATVSTGFSRSSAINEEDGSSEEGVVINAGKDSTSRELPSATPNTAGSSSTRFIANSQEPEIRLTSSLPRSPGRSTEDLPGSQATLSQWSTPGSTPSRWPSPSPTAMPSPEDLRLVLMPWGPWHCHCKSGTMSRSRSGKLHGLSGRLRVGALSQLRTEHKPCTYQQCPCNRLREECPLDTSLCTDTNCASQSTTSTRTTTTPFPTIHLRSSPSLPPASPCPALAFWKRVRIGLEDIWNSLSSVFTEMQPIDRNQR [Q9BUN1] | – | – | – | – | percentage of EdU-negative (MCF7; [9]): 25.2 ± 0.46%; percentage of EdU-negative (MCF7; [10]): 26.9 ± 2.7%; percentage of EdU-negative (hTERT-HMEC; [9]): 4.62 ± 0.76%; percentage of EdU-negative (hTERT-HMEC; [10]): 10.6 ± 1.3%
13 | MVPEEEPQDREKGLWWFQLKVWSMAVVSILLLSVCFTVSSVVPHNFMYSKTVKRLSKLREYQQYHPSLTCVMEGKDIEDWSCCPTPWTSFQSSCYFISTGMQSWTKSQKNCSVMGADLVVINTREEQDFIIQNLKRNSSYFLGLSDPGGRRHWQWVDQTPYNENVTFWHSGEPNNLDERCAIINFRSSEEWGWNDIHCHVPQKSICKMKKIYI [Q8WTT0] | 27.712 ± 0.0085 | 26.5 ± 0.9 | 4.78 ± 0.84 | 4.64 ± 1 | –
